Experimental data reported in patent US20250270343A1.

Molecular target: unidentified GPNMB ligand(s) on the surface of SVEC4-10 cells
Test: flow cytometry, soluble moGPNMB-Fc on SVEC4-10 cells, PE anti-IgG Fc secondary; thin-line histogram shifted right with a tail to about 10^4, thick-line control histogram near 0

B1: soluble mouse GPNMB-Fc polypeptide (Fc of human IgG1 or mouse IgG2A, not specified for the assay) (Fc fusion, UniProt Q99P91 23-502, looked up, not shown: a dimerising Fc or GST)
chain: KRFRDVLGHEQYPDHMREHNQLRGWSSDENEWDEHLYPVWRRGDGRWKDSWEGGRVQAVLTSDSPALVGSNITFVVNLVFPRCQKEDANGNIVYEKNCRNDLGLTSDLHVYNWTAGADDGDWEDGTSRSQHLRFPDRRPFPRPHGWKKWSFVYVFHTLGQYFQKLGRCSARVSINTVNLTAGPQVMEVTVFRRYGRAYIPISKVKDVYVITDQIPVFVTMSQKNDRNLSDEIFLRDLPIVFDVLIHDPSHFLNDSAISYKWNFGDNTGLFVSNNHTLNHTYVLNGTFNLNLTVQTAVPGPCPPPSPSTPPPPSTPPSPPPSPLPTLSTPSPSLMPTGYKSMELSDISNENCRINRYGYFRATITIVEGILEVSIMQIADVPMPTPQPANSLMDFTVTCKGATPMEACTIISDPTCQIAQNRVCSPVAVDGLCLLSVRRAFNGSGTYCVNFTLGDDASLALTSTLISIPGKDPDSPLRAVN
Question: With B1 as the binder, how does the PE-A subset (share of cells in the drawn gate, unit not given) read?
Answer: The PE-A subset (share of cells in the drawn gate, unit not given) was 70.1.
